Data reported in publication PMC9865355.

Legend:
Assay in all cases: split reporter (BiFC, NanoBiT)
[1] = molecular target: GLRaV-3 silencing suppressor p20B, BiFC fusion (grapevine leafroll-associated virus 3 (isolate GP18))
[2] = molecular target: GLRaV-3 coat protein (CP), BiFC fusion (grapevine leafroll-associated virus 3 (isolate GP18))
[3] = molecular target: GLRaV-3 heat shock protein 70 homolog (HSP70h), BiFC fusion (grapevine leafroll-associated virus 3 (isolate GP18))
[4] = molecular target: GLRaV-3 transmembrane movement protein p5, BiFC fusion (grapevine leafroll-associated virus 3 (isolate GP18))

Substance	average MI diff [1]	average MI diff [2]	average MI diff [3]	average MI diff [4]
GLRaV-3 silencing suppressor p20B, BiFC fusion (natural protein)	92.7			
GLRaV-3 coat protein (CP), BiFC fusion (natural protein)	55.7	27		
GLRaV-3 heat shock protein 70 homolog (HSP70h), BiFC fusion (natural protein)	45.5	34.6	51.8	
GLRaV-3 minor coat protein (CPm), BiFC fusion (natural protein)	27.2			
GLRaV-3 transmembrane movement protein p5, BiFC fusion (natural protein)				114
